Experimental data reported in US20250034594A1, “RNA-GUIDED GENOME RECOMBINEERING AT KILOBASE SCALE” (THE BOARD OF TRUSTEES OF THE LELAND STANFORD JUNIOR …, priority 2021, published 2025).

B1: SSAP_121: SEQ ID NO: 290; Bacillus sp. JAS24-2 (protein, listed as Bacillus sp.)
chain: ATNKDVKNQLANRKASAPVTTEQTVEAYMKKMGPKMAEVLPKHMDMDRMSRIALTTIRTNPKLLECSVPSLMGAVMSAVQLGLEPGLLGHCYILPYKSEATFIIGYKGMIDLARRSGHIQSIYAHAVYENDEFEYELGLHPQLKHKPSFGDRGEFIGAYAVAHFKDGGHQMEFMPKSEIEKRRGRSASANSNYSPWKTDYEEMAKKTVVRYMFKYLPISIEVQSQAQQDEVVRKDITEEPEFIEVEQQTEGDGQGDFVIEGE
B2: SSAP_21: SEQ ID NO: 190; Cellulosilyticum lentocellum (protein, listed as Cellulosilyticum lentocellum)
chain: SDKKELVLKETHSRLNQLLATKMEAMPKDFNQTRFLQNCMTVLQDTKGIENCHPVSIARTLLKGAFLGLDFFQRECYAIPYGGELQFQTDYKGETKMAKKYSIRDIKDIYAKVVRKGDEFKEEIVAGQQVVDFKPLPFNDAEIIGAFAVVLYQDGGMEYETMSTKQIEGIRDNFSKMKNGLMWTKTPEEAYKKTVLRRLTKKIEKDFASIDQAKAYEESSDMQFKQDEQKQDAKDPFADAVDVEFTEETEGQVRLDGEADGAK
B3: SSAP_169: SEQ ID NO: 338; Streptomyces showdoensis (protein, listed as Streptomyces showdoensis)
chain: TSDARNAVARRAANVGQVEQAGEQPKPTMAQQIERMKPEIARALPKHMDADRIARIALTLIRKNPDLANCTTESFLGALMTCSQLGFEPGSPTQEAYIIPRKGQAEFQLGYQGMVTLFYQHPMASSVKVETVRENDYFEHEEGLEERLIHRPFADGPRGKAIAYYSVARLINGGRTFKVMYPAEIEERRQKLPSKNSPAWRDNYDEMAKKTVLRNHFKALPKSAELARALAHDGTVRTDWQPDAIDVPPEYLSEPQRPELEAGAQ
B4: SSAP_108: SEQ ID NO: 277; Rummeliibacillus stabekisii (protein, listed as Rummeliibacillus stabekisii)
chain: ATTTELKEQMKQQAPAQTKKPKTIEDYMKQMAPAMAEALPKHMSVDRLTRLAMTTIRTTPALRQADVSSLLGAVMQAAQLGLEPGLLGQCYLLPFKNKKKAITEVQFIIGYKGMIDLARRSGHIQSIYSHAVFENDVFEYELGLEPKLKHTPTMSTDKGAFIGAYAVAHFKDGGHQFEFMSKADIEKRKGRSKAANSDYSPWLTDYEEMAKKTVIRHMWKYLPISVEMQEQVAYDEGVGRSIKDVTPEEDVFVQAPDEILEAEATEA
B5: SSAP_96: SEQ ID NO: 265; Plesiomonas shigelloides (protein)
chain: SNQRPPIATADLQKAQSQPPAAKPEQNLINFINQPSMKSQIAAALPRHMAPERMIRIITTEIRKTPKLATCDVQSFIGAVVQCSQLGLEPGGGLGHAYLLPFGNGKAESGKPNVQLIIGYRGMIDLARRSGQIVSISSRIVREGDQFHYEYGLNETLKHVPGDNESAPITHVYAVAKLKDGGTQFEVMSFNEIEKIRGQSKAGNDGPWIKHWEEMAKKTVIRRLFKYLPVSIEMQRAVILDEKAEADIEQDNASIIGAEYSVVENAA
modifications: Plesiomonas shigelloides
B6: SSAP_225: SEQ ID NO: 394; Actinocrispum wychmicini (protein, listed as Actinocrispum wychmicini)
chain: SQTVTAAVAQRDNGAQALIAKYRTDFAQVLPSHLRPTTFVRLSQGLLRRNVKLAEAAERNPASFLAALLECARLGHDPGTDQFALVPFNDRKRNTVEVVGIEQYQGVIERMYRAGAVRSVKAEVVRAADPFEYAPDVMDRPGHKPNWFADRGELIGVYAYAEFFDGSTSRVVMMNRETVMAHKAKSRGATSEDSPWQAWEESMWLKTAVHELEKWVPTSSEDRRAARDGTADPAPVEVPRVADEVLDADLVEDDHADHPTATPTGDVR
B7: SSAP_57: SEQ ID NO: 226; Pirellula sp. SH-Sr6A (protein, listed as Pirellula sp.)
chain: SEATKEAKPETAIAKKPNGIKDWLKSDALKTQIASVAPKHMAPERVMRIALNAVSRTPKLADCTPESFMRCLLDLSSWGLVPDGRHAHLIPYGTECTLVLDYKGLVTLAYRSGWVKKIHADVVFEGDIFVYSLGTVCQHIPWEFRDDANKPEHKGHFRAAYCVVTMADGIEKHEVMTASEIDAIKAKSRSGNSGPWKDHYTEMAKKTVYRRASKWLPLSPEQADAMERDDDRIIDAVSVAVTQRLSKAAMPLIGANETGDTE
B8: SSAP_26: SEQ ID NO: 195 (protein)
chain: TVQLVQPRNSDEYDFDQTKLDLIKRTICKGATNDELQLFIHACKRTGLDPFMRQIFAVKRWDSSTKKEIMTIQTGIDGYRLIADRTGKYAPGKDTEFGYDNKGNIRWAKAYIKKMTPDGQWHEISAIAFWEEYVQTTREGKSTLFWLKKSHIMLSKCTEALALRKTFPAERSGIYTKEEMAQEFSPLEEHLVERIAASRNDQGRS
B9: SSAP_1: SEQ ID NO: 172 (protein)
chain: ATNESLKNQLSTKKETGLGSAGNTIKGLMNSPAIKKRFEEVLKQRAPQYMSSIVNLVNSDINLKKCDQMSVVASCMVAATLDLPVDKNLGYAWVVPYGNKAQFQLGYKGYVQLALRTGQYKSINVIEIHEGELIDWNPLTEELKIDFSKKESDAVIGYAGYFELLNGFKKSTYWTKEQITKHKNKFSKSDFGWKKDFDAMARKTVLRNMLSKWGILSIEMQNAYTADQGIIKNEIIETGEVKENIEYIEADFESYEDNSIEEGGANE
B10: SSAP_237: SEQ ID NO: 406; Paenibacillus popilliae ATCC 14706 (protein, listed as Paenibacillus popilliae)
chain: STSHLLTIHNNLEKLIDSKREAMPKSFNKTRFLQNCMTVLQDTKDVGKCDPQSVARTLLKGAFLGLDFFNKECYAITYGGSVQFQTDYKGEKKLAKKYSVRPVKDIYAKLVREGDEFIEEIKDGQPTVQFKPLPFNDSEIKGAFAVSLFEDDGLAYEVMSVAEIELTRKNYSKQPNGQAWVKSKGEMYKKTVLRRLCKNIELDFDTIEQAQAFEDSSDFEFNKEPKQAQQSPLNPQATVIDAEYEEVKEESDNETNQE
B11: SSAP_133: SEQ ID NO: 302; Lacrimispora celerecrescens (protein, listed as Lacrimispora celerecrescens)
chain: SDVKQELEKRAAGGGSQSQSVKLTKNMTIVDMVKALEPEIKRALPSILTPERFTRMALSAINNTPKLGECTPMSFIAALMNAAQLGLEPNTPLGQAYLIPYKNKGVLECQFQLGYRGLIDLAYRNDRMQSIEAQVVYENDEFSYELGLHPSLTHRPSFDEPGEIRAFYAIFRLDNGGFRFEVMSKSYVDAYATKYSKAFTSDFSPWKNNYEGMAKKTVIKQLLKYAPIKSDFQKAITLDETVKTQLSIDMSEIRNECLPDTSENSEVA
B12: SSAP_290: SEQ ID NO: 459; Anaerovirgula multivorans (protein)
chain: DAKHLTVVHQNLNTLLKAKADALPKGFNQTRFLQNCMTVLQDTKDIESVEPKSVARTMLKGAFLGLDFFNKECYAIVYNKKAGNSWIKTLEFQTDYKGEIKLAKKYSINTIKDIYAKLVREGDEFEEGVKDGKQVINFKPKPFNNNKILGAFAVAYYENGSMIYDTMSVEEIESVKKAYAKADKEGKYSKAWIESTGEMYKKTVLRRLCKLIELDFDTIEQKQAFDEGSGMEFKQEGKTDKPKSSLEAEFVEAEYEEVEESETSEVVEE
modifications: Anaerovirgula multivorans
B13: SSAP_267: SEQ ID NO: 436; Clostridium combesii (protein, listed as Clostridium combesii)
chain: ANTKAIVLQETANNLNTLLKAKVKALPKGFNETRFLQNCMTVLQDTRNIEKCNSVSVARTMLKGAFLGLDFFSKECYAIPYNDYKTGKCHLEFQTDYKGERKLMKQYSVRPIKDIYAKVVREGDKFEEIIEKGIPTINFRPKPFSNEKIIGVFAVVLFEDGGLLYETMSVEDVEKIKVGFAKRDKEGNYSKAWTATPEEMYKKTVIRRLRKSVELEFDSVEQQKTYEEASEFDVKRDEEVKEEASPFENVDFEEAEEGNTIEAKQE

How the values were obtained:
Format in all cases: cell-based
gene editing with dCas9 = experiment: Screen of 322 new SSAP proteins, gene editing activity with dCas9 (Table 5); design: dCas9 with SSAP activity: scale not given here
Description: (§1) 322 new SSAP proteins were identified from sequence data, synthesized, and screened for activity with Cas9 and dCas9. Gene editing activities are shown below in Table 5, followed by amino acid sequences of the proteins.

[1] = test system: gene editing with Cas9 and dCas9; experiment: Screen of 322 new SSAP proteins, activity across all experiments (Cas9 and dCas9, Table 5); design: scale not given here
Description: as §1

gene editing with Cas9 = experiment: Screen of 322 new SSAP proteins, gene editing activity with Cas9 (Table 5); design: Cas9 with SSAP activity: scale not given here
Description: as §1

Molecule | dCas9 with SSAP activity (gene editing with dCas9) | dCas9 with SSAP activity (normalized) (gene editing with dCas9) | Activity across all experiments [1] | Cas9 with SSAP activity (gene editing with Cas9) | Cas9 with SSAP activity (normalized) (gene editing with Cas9)
B1 | 1.664 | 1.531 | 0.692 | −0.279 | −0.275
B2 | −3.610 | −0.537 | −2.192 | −0.774 | −0.320
B3 | −3.497 | −0.528 | −2.669 | −1.842 | −1.968
B4 | −3.682 | −0.539 | −1.807 | 0.069 | 0.068
B5 | −3.416 | −1.995 | −1.869 | −0.322 | −1.581
B6 | −3.577 | −0.602 | −2.204 | −0.830 | −0.252
B7 | −3.405 | −0.557 | −3.391 | −3.376 | −0.549
B8 | −3.399 | −0.852 | −1.354 | 0.692 | 1.723
B9 | −3.622 | −0.496 | −4.270 | −4.919 | −0.814
B10 | −3.513 | −0.512 | −5.493 | −7.473 | 
B11 | −3.605 | −0.658 | −4.276 | −4.946 | −1.095
B12 | −3.506 | −0.681 | −2.336 | −1.166 | −0.249
B13 | −3.571 | −0.553 | −1.897 | −0.224 | −0.145
